Data: the supplement of paper PMC7877785
± gives the uncertainty stated by the source.

Assay: self-splicing fitness, log relative to wild type (ln ratio); higher = more splicing; Tetrahymena group I intron in knt gene, E. coli kanamycin selection, DiMSum; sequences stand for … in CUCUCU…GGAGGGAAAAGUUAUCAGGCAUGCACCUGGUAGCUAGUCUUUAAACCAAUAGAUUGCAUCGGUUUAAAAGGCAAGACCGUCAAAUUGCGGGAAAGGGGUCAACAGCCGUUCAGUACCAAGUCUCAGGGGAAACUUUGAGAUGGCCUUGCAAAGGGUAUGGUAAUAAGCUGACGGACAUGGUCCUAACCACGCAGCCAAGUCCUAAGUCAACAGAUCUUCUGUUGAUAUGGAUGCAGUUCACAGACUAAAUGUCGGUCGGGGAAGAUGUAUUCUUCUCAUAAGAUAUAGUCGGACCUCUCCUUAAUGGGAGCUAGCGGAUGAAGUGAUGCAACACUGGAGCCGCUGGGAACUAAUUUGUAUGCGAAAGUAUAUUGAUUAGUUUUGGAGUACUCGUGGUCG
Procedure, shortened: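 Colonies from six replicate transformations of E. coli BL21(DE3) were pooled and amplicon-sequenced on an Illumina HiSeq 2500. The library placed an intron with all eight P1ex-region nucleotides randomised inside the knt kanamycin-resistance gene on pET-22b(+), and cells grew overnight at 37°C or 30°C on LB agar with or without 25 μg/mL kanamycin (plus 100 μg/mL carbenicillin, 50 μM IPTG, 0.2% rhamnose). Fitness is the DiMSum error-weighted combination of wild-type-normalised replicate fold changes, kanamycin versus none.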

Row | Sequence | self-splicing fitness (ln) (30 °C) | self-splicing fitness (ln) (37 °C)
1 | AGAAAGCAAUAUUACGACGU | 0.0909 ± 0.1 | 0.35 ± 0.1
2 | AUUAAGCAAUAUUACGCGAA | -1.32 ± 0.11 | -0.882 ± 0.13
3 | AAAAAGCAAUAUUACGCAGA | -2.35 ± 0.15 | -1.86 ± 0.14
4 | AUUGAGCAAUAUUACGCGUC | -3.26 ± 0.19 | -1.73 ± 0.2
5 | UCUGAGCAAUAUUACGGUGC | -4.39 ± 0.39 | -2.45 ± 0.25
6 | CGUGAGCAAUAUUACGAGUU | -3.88 ± 0.47 | -3.72 ± 0.36
7 | AACCAGCAAUAUUACGCCGA | -0.252 ± 0.11 | -0.169 ± 0.11
8 | CUCCAGCAAUAUUACGCCAG | -3.19 ± 0.37 | -2.08 ± 0.46
9 | CAUUAGCAAUAUUACGAAGU |  | -1.37 ± 0.44
10 | ACUAAGCAAUAUUACGUGCU | -1.62 ± 0.073 | -1.06 ± 0.099
11 | ACUGAGCAAUAUUACGGACA | -2.8 ± 0.22 | -2.27 ± 0.17
12 | GUUGAGCAAUAUUACGCAAA | -2.73 ± 0.35 | -0.984 ± 0.14
13 | UUCAAGCAAUAUUACGAAUA | -2.07 ± 0.18 | -0.837 ± 0.12
14 | UGCUAGCAAUAUUACGAAGA |  | -2.09 ± 0.2
15 | GUUCAGCAAUAUUACGGUGA | -2.66 ± 0.17 | -1.08 ± 0.13
16 | CUCUAGCAAUAUUACGAUUU | -3.27 ± 0.19 | -3.01 ± 0.3
17 | CAGUAGCAAUAUUACGCGGA | -2.93 ± 0.24 | -1.64 ± 0.15
18 | CGAUAGCAAUAUUACGCUAC | -2.95 ± 0.29 | 
19 | GUAGAGCAAUAUUACGUGAU | -2.29 ± 0.2 | -1.36 ± 0.19
20 | UUCCAGCAAUAUUACGUCUU | -2.64 ± 0.15 | -2.27 ± 0.2

Row | Sequence | self-splicing fitness (ln) (30 °C) | self-splicing fitness (ln) (37 °C)
21 | UGUAAGCAAUAUUACGACGA | -0.272 ± 0.12 | -0.249 ± 0.11
22 | GCCUAGCAAUAUUACGGAUU | -0.548 ± 0.085 | 0.334 ± 0.091
23 | AGGUAGCAAUAUUACGCAAC | -3.73 ± 0.042 | -2.61 ± 0.049
24 | ACCGAGCAAUAUUACGUCGG | -4.23 ± 0.39 | -3.13 ± 0.35
25 | GACUAGCAAUAUUACGUAAG | -0.946 ± 0.087 | -0.709 ± 0.11
26 | GGAUAGCAAUAUUACGUAGC | -3.55 ± 0.2 | -1.06 ± 0.16
27 | GACCAGCAAUAUUACGCUCG | -0.964 ± 0.13 | -0.766 ± 0.12
28 | AUCCAGCAAUAUUACGCAUG | -3.68 ± 0.27 | -0.669 ± 0.13
29 | UAAUAGCAAUAUUACGCGAC | -3.42 ± 0.35 | -1.61 ± 0.34
30 | UCUCAGCAAUAUUACGUUCU | -3.49 ± 0.16 | -1.86 ± 0.17
31 | GCCAAGCAAUAUUACGAAGC | -2.7 ± 0.12 | -2.51 ± 0.17
32 | CCCAAGCAAUAUUACGUACG | -3.55 ± 0.21 | -2.9 ± 0.15
33 | GAGAAGCAAUAUUACGAGGU | -3.47 ± 0.33 | -3.9 ± 0.46
34 | CAUGAGCAAUAUUACGUGAU | -2.58 ± 0.14 | -2.68 ± 0.2
35 | AUUAAGCAAUAUUACGGAUG | -2.15 ± 0.14 | -2.02 ± 0.22
36 | CAUUAGCAAUAUUACGAUCC |  | 0.538 ± 0.22
37 | UUUGAGCAAUAUUACGUGCU | -3.64 ± 0.16 | -2.84 ± 0.2
38 | UUUCAGCAAUAUUACGAUUC |  | -1.37 ± 0.41
39 | UACGAGCAAUAUUACGUGUU | -3.63 ± 0.19 | -3.63 ± 0.29
